Measurements: patent US20200360435A1 (MIE UNIVERSITY, published 2020)
Numbering of substitutions follows the chain as printed.

B1: TCR2-2 (TCR, V domains shown)
V domain 1: GAVVSQHPSRVICKSGTSVKIECRSLDFQATTMFWYRQFPKKSLMLMATSNEGSKATYEQGVEKDKFLINHASLTLSTLTVTSAHPEDSSFYICSARAGGDTFGSGTRLTVVE
V domain 2: AQSVTQLDSHVSVSEGTPVLLRCNYSSSYSPSLFWYVQHPNKGLQLLLKYTSAATLVKGINGFEAEFKKSETSFHLTKPSAHMSDAAEYFCVVSVNDYKLSFGAGTTVTVRA
notes: also called TCR having feature (D)
B2: TCR5-2 (TCR, V domains shown)
V domain 1: B1 V domain 1 with R97K, G99S, G100E, D101Q, T102Y, S105P, V112T
V domain 2: SQQGEEDPQALSIQEGENATMNCSYKTSINNLQWYRQNSGRGLVHLILIRSNEREKHSGRLRVTLDTSKKSSSLLITASRAADTASYFCAADNYGQNFVFGPGTRLSVLP
notes: also called TCR having feature (F)
B3: TCR5-3 (TCR, V domains shown)
V domain 1: GVTQTPKFRVLKTGQSMTLLCAQDMNHEYMYWYRQDPGMGLRLIHYSVGEGTTAKGEVPDGYNVSRLKKQNFLLGLESAAPSQTSVYFCASSYSRDRGWSEAFFGQGTRLTVVE
V domain 2: AQKVTQAQTEISVVEKEDVTLDCVYETRDTTYYLFWYKQPPSGELVFLIRRNSFDEQNEISGRYSWNFQKSTSSFNFTITASQVVDSAVYFCALNVMNRDDKIIFGKGTRLHILP
notes: also called TCR having feature (G)
B4: TCR1-2 (TCR, V domains shown)
V domain 1: GAVVSQHPSRVICKSGTSVKIECRSLDFQATTMFWYRQFPKKSLMLMATSNEGSKATYEQGVEKDKFLINHASLTLSTLTVTSAHPEDSSFYICSARYGEVAFFGQGTRLTVVE
V domain 2: GENVEQHPSTLSVQEGDSAVIKCTYSDSASNYFPWYKQELGKGPQLIIDIRSNVGEKKDQRIAVTLNKTAKHFSLHITETQPEDSAVYFCAASRDNNDMRFGAGTRLTVKP
notes: also called TCR having feature (B)
B5: TCR2-1 (TCR, V domains shown)
V domain 1: EAQVTQNPRYLITVTGKKLTVTCSQNMNHEYMSWYRQDPGLGLRQIYYSMNVEVTDKGDVPEGYKVSRKEKRNFPLILESPSPNQTSLYFCASSPGLAGGVEQFFGPGTRLTVLE
V domain 2: RKEVEQDPGPFNVPEGATVAFNCTYSNSASQSFFWYRQDCRKEPKLLMSVYSSGNEDGRFTAQLNRASQYISLLIRDSKLSDSATYLCVVNIGFGNVLHCGSGTQVIVLP
notes: also called TCR having feature (C)

Biological target: PE-labeled HLA-A*02:01/Taxp11-19 ([…]) tetramer (human; HTLV-1)
Experiment: tetramer staining of TCR-transduced human PBMCs, flow cytometry

Row | Binder | percent TCR-positive (tetramer-positive) CD4-positive cells among transfected cells | percent TCR-positive (tetramer-positive) CD8-positive cells among transfected cells
1 | B1 | ≥ 5% | ≥ 10%
2 | B2 | ≥ 5% | ≥ 10%
3 | B3 | ≥ 5% | ≥ 10%
4 | B4 | ≥ 5% | ≥ 10%
5 | B5 | ≥ 5% | ≥ 10%
